Measurements published in patent US20250250357A1 (NANJING ZAIMING PHARMACEUTICAL, published 2025).
Blank lines part the entries; values can stand above or below the binder they belong to.

Experiments:
[1] = molecular target: T1, human MSLN-FL-his protein (human, UniProt Q13421 296-580); assay: ELISA
T1 construct: also called hMSLN-FL-his; human MSLN full-length protein

[2] = molecular target: T2, human MSLN-R1-his protein (human, UniProt Q13421 296-390); assay: ELISA, antibody 10 nM
T2 construct: also called hMSLN-R1-his; human MSLN-R1 protein
T2 chain: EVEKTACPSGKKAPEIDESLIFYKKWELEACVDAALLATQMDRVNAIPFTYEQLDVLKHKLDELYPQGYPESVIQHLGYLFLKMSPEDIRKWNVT

[3] = molecular target: T2, human MSLN-R1-his protein; assay: ELISA, antibody 0.01 nM
[4] = molecular target: T2, human MSLN-R1-his protein; assay: ELISA, antibody 0.001 nM
[5] = molecular target: T2, human MSLN-R1-his protein; assay: ELISA, antibody 0 nM (blank)
[6] = molecular target: T2, human MSLN-R1-his protein; assay: ELISA, antibody 0.0001 nM
[7] = molecular target: T2, human MSLN-R1-his protein; assay: ELISA, antibody 0.1 nM
[8] = molecular target: T2, human MSLN-R1-his protein; assay: ELISA, antibody 1 nM
[9] = molecular target: T2, human MSLN-R1-his protein; assay: ELISA, antibody 100 nM

- binding result [1]: no binding (tested: up to 100 nM)
B1: S009-F3.38.10 (antibody, human IgG1, kappa, V domains shown)
VH: EVQLQQSGPVLVKPGASVKMSCEASGYIFTDYYMNWVKKSHGKSLEWIGVINPKNGVISHNQKFKGKATLTVDKSSNTAYMELSSLTSEDSAVYYCANYGSRFYAMDYWGQGTSVTVSS
VL: DVVMTQTPLSLPVSLGDQASISCRSSQSLIHSDGNTYLQWYLQKSGQSPKLLIYKVSNRFSGVPDRFSGSGSGTDFTLKISRVETEDLGVYFCSQTTHVPFTFGSGTKLEIKR
notes: chimeric, human IgG1/kappa

- OD450 nm [2]: 0.06
- OD450 nm [3]: 0.06
- OD450 nm [4]: 0.05
- OD450 nm [5]: 0.05
- OD450 nm [6]: 0.04
- OD450 nm [7]: 0.05
- OD450 nm [8]: 0.05
- OD450 nm [9]: 0.08
B2: Tab107 (YP3, hIgG1) (antibody, V domains shown)
VH: QEQLVESGGGLVQPGASLTLTCTASGIDFSRYYMCWVRQAPGKGLEGIACIYIGGSGSTYYASWAKGRFTISKASSTTVTLQMTSLTAADTATYFCARGTNLNYIFRLWGPGTLVTVSS
VL: DVVMTQTPSPVSAAVGGTVTIKCQASQSINNGLAWYQQKPGQPPRLLIYSASNLESGVPSRFKGSGSGTEFTLTISDLECDDAATYYCQCIWDGNSYVNAFGGGTEVVVRT
notes: also called YP3 human IgG1 antibody
